Measurements published in US5976792.

The substances below were run against 125I-labeled fibronectin (assay: binding of 125I-labeled fibronectin to whole bacterial cells).

In order of falling cpm of 125I fibronectin bound to 10^9 CFU:
1. whole cells of S. aureus ALC561 (ALC136 with pALC561, sar fragment nt 1-1349) (cells without a defined receptor)  19300 cpm
2. whole cells of S. aureus strain RN6390 (parental strain) (cells without a defined receptor)  3320 cpm
3. whole cells of S. aureus sar mutant ALC136 (isogenic mutant of RN6390 carrying a sar::Tn917LTV1 mutation) (cells without a defined receptor)  2390 cpm
